The chains are these.
B1: Anti-CD154 antibody (SLAPH0336a/SLAPL0336a) with Fc variant LALA+ACT3 (SG1044) (antibody)
heavy: EVQLVESGGGSVKPGGSLKLSCAASGFTFSDHYMYWVRQTPEKRLEWVAIISGGGSYTSYPDSMKGRFTISRDNAKNILHLQMSSLKSEDTAMYYCTRESNGKPGFAYWGQGTLVTVSAASTKGPSVFPLAPSSKSTSGGTAALGCLVKDYFPEPVTVSWNSGALTSGVHTFPAVLQSSGLYSLSSVVTVPSSSLGTQTYICNVNHKPSNTKVDKRVEPKSCDKTHTCPPCPAPEAAGGPSVFLFPPKPKDTLMISRTPEVTCVVVDVSHEDPEVKFNWYVDGVEVHNAKTKPREEQYNSTYRVVSVLTVLHQDWLNGKEYKCKVSNKALPAPIEKTISKAKGQPREPQVYTLPPSREEMTKNQVSLTCLVKGFYPSDIAVEWESNGQPENNYKTTPPVLDSDGSFFLYSKLTVDKSRWQQGNVFSCSVLHEALHAHTTRKELSLSP
light: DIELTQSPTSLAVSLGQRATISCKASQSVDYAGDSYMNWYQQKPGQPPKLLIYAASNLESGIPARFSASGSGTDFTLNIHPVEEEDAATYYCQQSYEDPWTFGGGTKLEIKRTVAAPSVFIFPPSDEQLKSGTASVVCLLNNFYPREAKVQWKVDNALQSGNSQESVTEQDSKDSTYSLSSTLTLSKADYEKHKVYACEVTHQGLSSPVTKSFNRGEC
B2: Anti-CD154 antibody (SLAPH0336a/SLAPL0336a) with Fc variant LALA+ACT5 (SG1045) (antibody)
heavy: B1 heavy with T438Y
light: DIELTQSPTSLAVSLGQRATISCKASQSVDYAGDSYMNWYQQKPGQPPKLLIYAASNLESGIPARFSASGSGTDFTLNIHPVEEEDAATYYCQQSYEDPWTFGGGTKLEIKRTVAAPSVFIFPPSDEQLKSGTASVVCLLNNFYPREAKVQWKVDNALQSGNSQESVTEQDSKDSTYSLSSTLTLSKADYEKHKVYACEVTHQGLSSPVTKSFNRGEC
B3: Anti-CD154 antibody (SLAPH0336a/SLAPL0336a) with Fc variant LALA+ACT3+KAES (SG1105) (antibody)
heavy: B1 heavy with K328A, E335S
light: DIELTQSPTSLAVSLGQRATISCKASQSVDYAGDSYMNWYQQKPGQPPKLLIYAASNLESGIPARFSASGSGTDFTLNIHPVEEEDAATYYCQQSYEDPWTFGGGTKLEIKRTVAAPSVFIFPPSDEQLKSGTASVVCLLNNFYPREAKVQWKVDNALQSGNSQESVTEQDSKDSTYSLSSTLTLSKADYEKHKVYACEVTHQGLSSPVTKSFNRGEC
notes: also called LALA+KAES+ACT3
B4: Anti-CD154 antibody (SLAPH0336a/SLAPL0336a) with Fc variant LALA+ACT5+KAES (SG1106) (antibody)
heavy: B1 heavy with K328A, E335S, T438Y
light: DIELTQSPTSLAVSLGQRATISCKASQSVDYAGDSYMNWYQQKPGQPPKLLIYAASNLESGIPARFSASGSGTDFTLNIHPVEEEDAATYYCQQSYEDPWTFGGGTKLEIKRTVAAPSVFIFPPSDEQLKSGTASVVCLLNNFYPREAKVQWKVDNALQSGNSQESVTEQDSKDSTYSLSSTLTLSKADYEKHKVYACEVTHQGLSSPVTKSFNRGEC
notes: also called LALA+KAES+ACT5

Numbering of substitutions follows the chain as printed.

T1 sequence (P12314 16-292 limits assumed): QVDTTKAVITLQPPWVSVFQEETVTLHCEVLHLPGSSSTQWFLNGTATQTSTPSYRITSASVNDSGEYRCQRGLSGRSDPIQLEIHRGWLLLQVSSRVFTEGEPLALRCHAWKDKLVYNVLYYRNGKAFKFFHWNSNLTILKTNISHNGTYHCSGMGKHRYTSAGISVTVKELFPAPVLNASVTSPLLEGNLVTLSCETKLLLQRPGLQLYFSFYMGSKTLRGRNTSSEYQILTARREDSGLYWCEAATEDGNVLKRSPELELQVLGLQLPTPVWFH

The target of the first assay is human C1q (Calbiochem) (human, UniProt P02745 23-245; P02746 28-253; P02747 29-245). Kind of assay: ELISA: antibody coated on the plate at the concentration shown, human C1q added, detected with HRP anti-human C1q, OD 450 nm.
human C1q (Calbiochem), sequence (P02745 23-245 limits assumed, chain 1 of 3): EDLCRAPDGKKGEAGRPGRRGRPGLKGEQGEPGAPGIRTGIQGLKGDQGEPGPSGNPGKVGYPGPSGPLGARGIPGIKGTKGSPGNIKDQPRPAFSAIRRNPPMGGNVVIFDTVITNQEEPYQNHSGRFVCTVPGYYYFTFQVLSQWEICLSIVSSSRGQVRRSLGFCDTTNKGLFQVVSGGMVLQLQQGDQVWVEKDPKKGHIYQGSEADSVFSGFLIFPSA
human C1q (Calbiochem), sequence (P02746 28-253 limits assumed, chain 2 of 3): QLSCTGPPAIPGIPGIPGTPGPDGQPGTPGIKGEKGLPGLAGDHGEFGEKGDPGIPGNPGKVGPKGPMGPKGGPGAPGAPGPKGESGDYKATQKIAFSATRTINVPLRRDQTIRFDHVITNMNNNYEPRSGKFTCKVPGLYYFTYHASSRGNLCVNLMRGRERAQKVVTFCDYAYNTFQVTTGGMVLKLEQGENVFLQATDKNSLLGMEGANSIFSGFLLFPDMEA
human C1q (Calbiochem), sequence (P02747 29-245 limits assumed, chain 3 of 3): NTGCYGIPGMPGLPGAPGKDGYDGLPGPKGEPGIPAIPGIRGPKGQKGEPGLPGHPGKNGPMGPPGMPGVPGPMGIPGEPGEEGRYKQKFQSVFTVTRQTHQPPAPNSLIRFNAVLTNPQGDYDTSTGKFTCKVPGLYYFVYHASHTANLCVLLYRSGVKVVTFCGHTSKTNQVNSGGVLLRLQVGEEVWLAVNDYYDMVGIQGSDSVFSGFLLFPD
Turning to B1, the binding result is on record as “binds”.

As to B2, the binding result is reported as “binds”.

Consider B3, for which the binding result is on record as “binds”.

Consider B4, for which the binding result was “binds”.

For the next assay, the target named is mouse C1q (from 10% mouse plasma) (mouse, UniProt P98086 23-245; P14106 26-253; Q02105 30-246). In words: ELISA: antibody coated on the plate at the concentration shown, 10% mouse plasma added, detected with biotinylated anti-mouse C1q and streptavidin-HRP, OD 405 nm. Background: In an ELISA, binding on a coated surface is turned into a signal by an enzyme label.
mouse C1q (from 10% mouse plasma), sequence (P98086 23-245 limits assumed, chain 1 of 3): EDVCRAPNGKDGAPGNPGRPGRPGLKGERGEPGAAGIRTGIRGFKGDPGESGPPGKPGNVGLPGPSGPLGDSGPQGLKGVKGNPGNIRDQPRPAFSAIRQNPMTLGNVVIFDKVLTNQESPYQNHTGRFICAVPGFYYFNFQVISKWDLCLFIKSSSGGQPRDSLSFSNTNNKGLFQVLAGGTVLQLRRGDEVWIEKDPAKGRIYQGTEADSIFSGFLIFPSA
mouse C1q (from 10% mouse plasma), sequence (P14106 26-253 limits assumed, chain 2 of 3): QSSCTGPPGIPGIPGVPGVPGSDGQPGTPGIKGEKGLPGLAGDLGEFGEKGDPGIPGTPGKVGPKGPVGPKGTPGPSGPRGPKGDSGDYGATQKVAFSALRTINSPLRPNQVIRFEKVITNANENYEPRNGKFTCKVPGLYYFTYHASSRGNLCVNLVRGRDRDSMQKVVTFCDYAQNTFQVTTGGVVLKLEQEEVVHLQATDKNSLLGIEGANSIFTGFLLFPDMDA
mouse C1q (from 10% mouse plasma), sequence (Q02105 30-246 limits assumed, chain 3 of 3): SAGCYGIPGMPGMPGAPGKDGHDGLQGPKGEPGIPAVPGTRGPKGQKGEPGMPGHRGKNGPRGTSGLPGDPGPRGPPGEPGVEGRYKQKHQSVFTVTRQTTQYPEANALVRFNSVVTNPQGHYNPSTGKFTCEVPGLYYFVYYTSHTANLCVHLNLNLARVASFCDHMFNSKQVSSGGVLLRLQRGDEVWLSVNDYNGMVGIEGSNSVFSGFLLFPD
Consider B1, for which the binding result is on record as “binds”.

For the molecule B2, the binding result was “binds”.

For B3, the binding result is “binds”.

In the case of B4, the binding result is reported as “binds”.

A further assay addresses T1, human FcγRIa (human, UniProt P12314 16-292).
T1 construct: also called human FcγR1a
In words: SPR (Biacore T200, pH 7.4, 25 °C): His-tagged FcγR captured by anti-His antibody; antibody injected at 100 nM alone (Ab alone) or as 1:1 complex with trimeric CD154 (CD154 IC); binding level / capture level [A]. For orientation: SPR reads the build-up and loss of mass on a sensor chip optically.
For the molecule B1, the binding result was “binds”.

Consider B2, for which the binding result is recorded as “binds”.

Turning to B3, the binding result is reported as “binds”.

As to B4, the binding result is reported as “binds”.

The target of a further assay is T2, human FcγRIIa (167R) (human, UniProt P12318 36-217).
T2 construct: also called human FcγR2a allelic variant 167R
T2 chain: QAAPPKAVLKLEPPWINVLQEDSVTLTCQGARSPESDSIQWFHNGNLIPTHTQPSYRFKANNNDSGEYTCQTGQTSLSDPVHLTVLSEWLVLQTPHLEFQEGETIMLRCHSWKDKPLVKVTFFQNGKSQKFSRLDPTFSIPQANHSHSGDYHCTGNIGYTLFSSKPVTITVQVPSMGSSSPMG
In words: SPR (Biacore T200, pH 7.4, 25 °C): His-tagged FcγR captured by anti-His antibody; antibody injected at 100 nM alone (Ab alone) or as 1:1 complex with trimeric CD154 (CD154 IC); binding level / capture level [C].
Take B1: the binding result is “no binding (tested: 100 nM)”.

As to B2, the binding result is given as “no binding (tested: 100 nM)”.

With B3, the binding result was “no binding (tested: 100 nM)”.

For B4, the binding result is “no binding (tested: 100 nM)”.

The target of the next assay is T3, human FcγRIIIa (158V) (human, UniProt P08637 17-208).
T3 construct: also called human FcγR3a allelic variant 158V
T3 sequence (P08637 other isoform, or with tags, fused parts or gaps limits assumed): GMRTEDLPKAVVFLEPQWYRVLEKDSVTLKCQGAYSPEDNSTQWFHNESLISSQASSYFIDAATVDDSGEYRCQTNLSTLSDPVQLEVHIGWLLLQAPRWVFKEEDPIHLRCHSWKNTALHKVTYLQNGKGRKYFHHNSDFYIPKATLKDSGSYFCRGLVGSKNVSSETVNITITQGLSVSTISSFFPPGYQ
Kind of assay: SPR (Biacore T200, pH 7.4, 25 °C): His-tagged FcγR captured by anti-His antibody; antibody injected at 100 nM alone (Ab alone) or as 1:1 complex with trimeric CD154 (CD154 IC); binding level / capture level [F].
For the molecule B2, the binding result is “binds”.

In the case of B3, the binding result was “binds”.

Consider B4, for which the binding result is reported as “binds”.

The target of another assay is T4, human FcγRIIIb (NA1) (human, UniProt O75015 17-200).
T4 construct: also called human FcγR3b allelic variant NA1
T4 chain: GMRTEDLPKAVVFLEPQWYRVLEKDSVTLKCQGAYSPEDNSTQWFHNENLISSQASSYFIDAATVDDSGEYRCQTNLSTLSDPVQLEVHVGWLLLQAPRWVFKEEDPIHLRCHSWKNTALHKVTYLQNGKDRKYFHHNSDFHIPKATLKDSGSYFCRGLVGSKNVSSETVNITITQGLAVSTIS
Kind of assay: SPR (Biacore T200, pH 7.4, 25 °C): His-tagged FcγR captured by anti-His antibody; antibody injected at 100 nM alone (Ab alone) or as 1:1 complex with trimeric CD154 (CD154 IC); binding level / capture level [G].
Take B1: the binding result was “no binding (tested: 100 nM)”.

B2: the binding result was “no binding (tested: 100 nM)”.

For the molecule B3, the binding result is “no binding (tested: 100 nM)”.

Turning to B4, the binding result is given as “no binding (tested: 100 nM)”.

The target of the next assay is T5, human FcγRIIIb (NA2) (human, UniProt O75015 17-200).
T5 construct: also called human FcγR3b allelic variant NA2
T5 chain: T4 chain with R20S, N49S, D66N, V90I
In words: SPR (Biacore T200, pH 7.4, 25 °C): His-tagged FcγR captured by anti-His antibody; antibody injected at 100 nM alone (Ab alone) or as 1:1 complex with trimeric CD154 (CD154 IC); binding level / capture level [H].
For the molecule B1, the binding result was “no binding (tested: 100 nM)”.

With B2, the binding result is “no binding (tested: 100 nM)”.

Consider B3, for which the binding result was “no binding (tested: 100 nM)”.

In the case of B4, the binding result is given as “no binding (tested: 100 nM)”.

A further assay has as its target T6, mouse FcγRI (mouse, UniProt P26151 25-297).
T6 construct: also called mFcγRI; mouse FcγR1
T6 sequence: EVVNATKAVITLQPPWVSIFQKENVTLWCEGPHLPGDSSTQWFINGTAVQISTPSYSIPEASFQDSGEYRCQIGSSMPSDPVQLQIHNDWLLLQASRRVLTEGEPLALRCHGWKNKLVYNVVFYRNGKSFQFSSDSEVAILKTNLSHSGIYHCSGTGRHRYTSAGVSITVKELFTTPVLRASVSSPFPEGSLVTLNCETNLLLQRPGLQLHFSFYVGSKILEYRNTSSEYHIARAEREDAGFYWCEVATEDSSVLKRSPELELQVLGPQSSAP
In words: SPR (Biacore T200, pH 7.4, 25 °C): His-tagged FcγR captured by anti-His antibody; antibody injected at 100 nM alone (Ab alone) or as 1:1 complex with trimeric CD154 (CD154 IC); binding level / capture level [A].
Turning to B1, the binding result is “no binding (tested: 100 nM)”.

Regarding B2, the binding result is listed as “no binding (tested: 100 nM)”.

B3: the binding result was “no binding (tested: 100 nM)”.

On to B4, for which the binding result is listed as “no binding (tested: 100 nM)”.

Another assay concerns the target T7, mouse FcγRIIb (mouse, UniProt P08101 30-210).
T7 construct: also called mFcγRIIb; mouse FcγR2b
T7 sequence: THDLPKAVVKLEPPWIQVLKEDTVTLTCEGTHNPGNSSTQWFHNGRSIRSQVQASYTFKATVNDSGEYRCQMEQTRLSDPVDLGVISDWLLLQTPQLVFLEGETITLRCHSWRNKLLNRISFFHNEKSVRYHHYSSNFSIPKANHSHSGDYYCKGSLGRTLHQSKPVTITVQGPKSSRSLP
In words: SPR (Biacore T200, pH 7.4, 25 °C): His-tagged FcγR captured by anti-His antibody; antibody injected at 100 nM alone (Ab alone) or as 1:1 complex with trimeric CD154 (CD154 IC); binding level / capture level [B].
On to B1, for which the binding result was “no binding (tested: 100 nM)”.

As for B2, the binding result is “no binding (tested: 100 nM)”.

In the case of B3, the binding result is “no binding (tested: 100 nM)”.

As for B4, the binding result is given as “no binding (tested: 100 nM)”.

A further assay addresses T8, mouse FcγRIII (mouse, UniProt P08508 31-215).
T8 construct: also called mFcγRIII; mouse FcγR3
T8 chain: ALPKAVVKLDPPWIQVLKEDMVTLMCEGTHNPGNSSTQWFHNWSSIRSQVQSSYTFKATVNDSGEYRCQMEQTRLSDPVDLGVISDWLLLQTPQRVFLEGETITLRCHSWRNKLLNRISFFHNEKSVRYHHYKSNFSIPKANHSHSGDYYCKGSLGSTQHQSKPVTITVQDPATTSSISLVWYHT
In words: SPR (Biacore T200, pH 7.4, 25 °C): His-tagged FcγR captured by anti-His antibody; antibody injected at 100 nM alone (Ab alone) or as 1:1 complex with trimeric CD154 (CD154 IC); binding level / capture level [C].
Take B1: the binding result is “no binding (tested: 100 nM)”.

As to B2, the binding result was “no binding (tested: 100 nM)”.

As for B3, the binding result is on record as “no binding (tested: 100 nM)”.

With B4, the binding result is “no binding (tested: 100 nM)”.

(Values after patent US20190218277A1 (Chugai, published 2019).)
